Reference: patent publication US10640563B2, “Anti-B7-H3 antibodies and antibody drug conjugates” (AbbVie Inc., priority 2016, dated 2020)
Marks after values point to notes of the source that are not given here.

Assays:
EBC1 = assay: In vivo xenograft model of non-small cell lung cancer EBC1; conditions: 7.5 mg/kg/day, QDx1/IV
Procedure: (§1) The anti-tumor activity was assessed as monotherapy and in combination with docetaxel (H1650, H1299, H1975, and EBC1).

H1975 = assay: In vivo xenograft model of non-small cell lung cancer H1975; conditions: NCI-H1975; 7.5 mg/kg/day, QDx1/IV
Procedure: as §1

H1299 = assay: In vivo xenograft model of non-small cell lung cancer H1299; conditions: NCI-H1299; 7.5 mg/kg/day, QDx1/IV
Procedure: as §1

H1650 = assay: In vivo xenograft model H1650; set-up: species or system mouse; conditions: NCI-H1650, 7.5 mg/kg/day
[1] = molecular target: T1, soluble ECD of human B7-H3 (Homo sapiens, UniProt Q5ZPR3); assay: Biacore T200 SPR binding kinetics, mAb capture; conditions: Biacore T200, Fc capture of mAb, B7-H3 ECD as analyte, 1:1 binding model
T1 construct: His tag (6xHis) (C); made in house
T1 sequence (Q5ZPR3 with tags, fused parts or gaps): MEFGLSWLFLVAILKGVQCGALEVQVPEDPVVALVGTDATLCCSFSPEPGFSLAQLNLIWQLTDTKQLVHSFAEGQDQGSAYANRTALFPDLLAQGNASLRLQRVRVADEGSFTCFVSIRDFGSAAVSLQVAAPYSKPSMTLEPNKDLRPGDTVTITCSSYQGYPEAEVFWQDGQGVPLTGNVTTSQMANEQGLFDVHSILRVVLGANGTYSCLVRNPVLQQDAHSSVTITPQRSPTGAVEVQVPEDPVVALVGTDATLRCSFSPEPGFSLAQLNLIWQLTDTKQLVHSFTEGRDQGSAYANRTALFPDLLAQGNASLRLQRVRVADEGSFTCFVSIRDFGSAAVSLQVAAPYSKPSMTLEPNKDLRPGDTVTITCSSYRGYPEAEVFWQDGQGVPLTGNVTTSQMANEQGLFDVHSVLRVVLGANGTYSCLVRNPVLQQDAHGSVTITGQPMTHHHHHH
Procedure: The binding affinity of the purified anti-B7-H3 monoclonal antibodies was determined by surface […]. […] The binding kinetics were derived from SPR measurements using a Biacore T200 instrument and a mAb capture approach (as described in the materials and methods below).
Biacore T200 SPR instruments were used to measure the binding kinetics of human B7-H3 (analyte) binding to various mAbs (ligands). The assay format was Fc-based capture via immobilized anti-mouse (Fc) (Pierce 31170) or immobilized anti-human (Fc) (Pierce 31125). A standard amine coupling protocol was employed to immobilize the capture reagents via primary amines to the carboxy-methyl (CM) dextran surface of CM5 sensorchips (Biacore); capture antibodies were coupled to a level of approximately 5000 RU. For binding kinetic measurements the assay buffer was HBS-EP+ (Biacore): 10 mM Hepes, pH7.4, 150 mM NaCl, 3 mM EDTA, 0.05% polysorbate 20. During the assay, all measurements were referenced against the capture surface alone. Each assay cycle consisted of the following steps: 1) Capture of ligand to approximately 50 RU; 2) Analyte injection over both reference and test surface, 240 μL at 80 μL/min, after which the dissociation was monitored for 900 seconds at 80 μL/min; 3) Regeneration of capture surface with low pH glycine. For kinetic determinations analyte injections were 3-point, 9-fold dilution series of 900 nM, 100 nM and 11.11 nM, buffer only injections were included for secondary referencing. Data were processed and fit to a 1:1 binding model using Biacore T200 Evaluation Software to determine the binding kinetic rate constants, ka (on-rate) and kd (off-rate), and the equilibrium dissociation constant (affinity, KD).

[2] = test system: soluble ECD of cyno B7-H3; assay: Biacore T200 SPR binding kinetics, mAb capture; set-up: species or system cynomolgus monkey; conditions: Biacore T200, Fc capture of mAb, B7-H3 ECD as analyte, 1:1 binding model
Sequence of soluble ECD of cyno B7-H3 (as listed by the source): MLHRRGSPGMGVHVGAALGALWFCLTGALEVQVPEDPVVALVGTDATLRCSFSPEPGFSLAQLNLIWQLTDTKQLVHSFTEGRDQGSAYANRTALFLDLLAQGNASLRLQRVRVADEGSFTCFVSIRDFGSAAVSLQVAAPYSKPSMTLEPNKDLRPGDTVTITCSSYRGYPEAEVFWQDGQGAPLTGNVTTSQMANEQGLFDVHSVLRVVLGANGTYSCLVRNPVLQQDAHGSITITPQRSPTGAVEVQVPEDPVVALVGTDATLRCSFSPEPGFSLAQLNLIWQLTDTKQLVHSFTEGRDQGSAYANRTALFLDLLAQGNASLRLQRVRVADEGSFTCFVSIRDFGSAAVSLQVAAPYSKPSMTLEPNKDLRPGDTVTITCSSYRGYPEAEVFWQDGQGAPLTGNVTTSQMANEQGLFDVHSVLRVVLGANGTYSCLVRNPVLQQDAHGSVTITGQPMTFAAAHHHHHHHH

mouse B7-H3 = molecular target: T2, mouse B7-H3 (Mus musculus, UniProt Q8VE98); assay: FACS binding to mouse 3T12 fibroblasts expressing mouse B7-H3; conditions: purified mouse hybridoma mAb; cells expressing mouse B7-H3
T2 construct: expressed in transfected cells; host or cells: mouse 3T12 fibroblasts
T2 sequence (Q8VE98 29-316): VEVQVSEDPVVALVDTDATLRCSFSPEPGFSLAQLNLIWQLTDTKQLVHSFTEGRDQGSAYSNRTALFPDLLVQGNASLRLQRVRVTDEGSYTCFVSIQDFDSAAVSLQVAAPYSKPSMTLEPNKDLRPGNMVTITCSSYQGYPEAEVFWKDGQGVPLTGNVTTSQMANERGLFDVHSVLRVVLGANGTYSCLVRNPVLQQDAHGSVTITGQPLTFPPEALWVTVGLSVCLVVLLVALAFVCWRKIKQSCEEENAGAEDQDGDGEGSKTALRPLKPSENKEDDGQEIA

[3] = Aggregation of conjugates by SEC; format: physicochemical; conditions: Table 17; CZ conjugates of huAb3v2 variants
H847 cells = assay: Cell cytotoxicity of ADCs in H847 cells; format: cell-based; conditions: Table 17; CZ conjugates; read-out: Cytotoxicity (H847 Cell line IC50)
Description: These new anti-B7-H3 antibodies were further characterized for binding by SPR and conjugated to the Bcl-xLi synthon CZ and assessed for cell cytotoxicity (using the methods described in Example 7).

B7-H3 = molecular target: T3, B7-H3 (Homo sapiens, UniProt Q5ZPR3); assay: Affinity of naked mAbs by SPR (Biacore); format: binding; conditions: Table 17
T3 construct: His tag (6xHis) (C); made in house
T3 sequence (Q5ZPR3 with tags, fused parts or gaps): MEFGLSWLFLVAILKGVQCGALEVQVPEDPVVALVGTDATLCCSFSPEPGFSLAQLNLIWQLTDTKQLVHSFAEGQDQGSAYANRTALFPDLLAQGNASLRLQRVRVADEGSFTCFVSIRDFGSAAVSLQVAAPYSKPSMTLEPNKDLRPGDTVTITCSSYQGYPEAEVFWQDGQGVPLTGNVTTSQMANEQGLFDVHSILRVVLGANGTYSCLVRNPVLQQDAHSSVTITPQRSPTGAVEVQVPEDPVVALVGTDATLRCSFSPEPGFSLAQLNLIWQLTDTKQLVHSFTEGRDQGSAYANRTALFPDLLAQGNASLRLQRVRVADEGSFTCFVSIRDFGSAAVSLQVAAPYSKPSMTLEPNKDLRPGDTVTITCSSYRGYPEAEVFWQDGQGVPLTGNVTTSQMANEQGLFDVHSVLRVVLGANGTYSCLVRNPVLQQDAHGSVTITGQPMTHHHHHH
Procedure: The parental chAb18 from which the variants were derived was also tested as a comparator.

NCI-H146 cells = assay: In vivo xenograft model of small cell lung cancer (NCI-H146); set-up: species or system mice; conditions: Table 23; 6 mg/kg/IP/QDx1

CC(=O)O[C@@]12CO[C@@H]1C[C@H](O)[C@@]1(C)C(=O)[C@H](O)C3=C(C)[C@@H](OC(=O)[C@H](O)[C@@H](NC(=O)OC(C)(C)C)c4ccccc4)C[C@@](O)([C@@H](OC(=O)c4ccccc4)[C@H]21)C3(C)C [Docetaxel]
TGD (%) (EBC1): 80%
TGImax (%) (EBC1): 85%
TGD (%) (H1975): 77%
TGImax (%) (H1975): 81%
TGD (%) (H1299): 48%
TGImax (%) (H1299): 87%
TGD (%) (H1650; IV/Q14Dx3): 158* %
TGImax (%) (H1650; IV/Q14Dx3): 80* %
TGD (%) (H1650; QDx1/IV): 143%
TGImax (%) (H1650; QDx1/IV): 84%

B1: Ab18: murine monoclonal Ab18 (antibody, V domains shown)
VH: QVQLQQSAAELARPGASVKMSCKASGYSFTSYTIHWVKQRPGQGLEWIGYINPNSRNTDYNQKFKDETTLTADRSSSTAYMQLISLTSEDSAVYYCARYSGSTPYWYFDVWGAGTTVTVSS
VL: QIVLTQSPAILSASPGEKVTMTCRASSSVSYMNWYQQKPGSSPKPWIYATSNLASGVPARFSVSVSGTSHSLTISRVEAEDAATYYCQQWSSNPLTFGAGTKLELK
huB7-H3 ka [1]: 210000 M⁻¹ s⁻¹
huB7-H3 kd [1]: 3.6e-05 s⁻¹
cynoB7-H3 ka [2]: 240000 M⁻¹ s⁻¹
cynoB7-H3 kd [2]: 2.9e-05 s⁻¹
FACS Binding (EC50 nM) Mouse B7-H3 (mouse B7-H3): No binding

B2: Ab6 (antibody, V domains shown)
VH: QVQLQQSGAELMKPGASVKISCKATGYTFSRYWIEWVKQRPGHGLEWIGEILPGSGSTNYNEKFKGKATFTADTSSNTAYMQVSSLTSEDSAVHYCARRGYGYVPYALDYWGQGTSVTVSS
VL: EIQMTQTTSSLSASLGDRVTISCRASQDISNSLNWYQQKPDGTVNLLIYYTSRLYSGVPSRFSGSGSGTDYSLTISNLEQEDIATYFCQQGNTLPYTFGGGTKLEIK
huB7-H3 ka [1]: 12000 M⁻¹ s⁻¹
huB7-H3 kd [1]: 0.01 s⁻¹
cynoB7-H3 ka [2]: 28000 M⁻¹ s⁻¹
cynoB7-H3 kd [2]: 0.012 s⁻¹
FACS Binding (EC50 nM) Mouse B7-H3 (mouse B7-H3): No binding

B3: huAb3v2.9-CZ (conjugate)
VH: EVQLVQSGAEVKKPGSSVKVSCKASGYTFSSYWMHWVRQAPGQGLEWIGLIHPISGSTNYNEMFKNRATLTVDRSTSTAYMELSSLRSEDTAVYYCAGGGRLYFDYWGQGTTVTVSS
VL: DIVMTQSPLSLPVTPGEPASISCRSSQSLVHSNQDTYLRWYLQKPGQSPQLLIYKVSNRFSGVPDRFSGSGSGTDFTLKISRVEAEDVGVYYCSQSTHVPYTFGGGTKVEIK
% agg by SEC [3]: 4.3%
IC50 (H847 cells): 2.3 nM
Affinity of naked mAbs (Biacore, KD) (B7-H3): Poor fit
TGD (%) (NCI-H146 cells): 135%
TGImax (%) (NCI-H146 cells): 94%
